# Experimental data as given in patent US6362319B1, “Glial cell line-derived neurotrophic factor” (Amgen Inc., priority 1991, dated 2002).
# B1: glial cell line-derived neurotrophic factor (protein)
# chain: SNMPEDYPDQFDDVMDFIQATIKRLKRSPDKQMAVLPRRERNRQAAAANPENSRGKGRRGQRGKNRGCVLTAIHLNVTDLGLGYETKEELIFRYCSGSCDAAETTYDKILKNLSRNRRLVTDKVGQACCRPIAF
# notes: dopaminergic neurotrophic protein purified from serum-free conditioned medium of rat B49 glioblastoma cells; disulfide-bonded dimer
# Experiments:
# [1] = system: GABA neurons in mesencephalic cultures; assay: 14C-GABA uptake in mesencephalic cultures; type: cell-based, rat; settings: cultures grown with GDNF for 16 days
# Description: FIGS. 21A-C depicts the specificity of GDNF to dopaminergic neurons. Cultures were established as described in Example 1B. GDNF was added on the day of plating. A. ^3H-DA uptake was measured after seven days in vitro. B. ^14C-GABA uptake was measured after eight days in vitro. Cells were incubated and treated as for ^3H-DA uptake, except the uptake buffer consists of Kreb-Ringer's phosphate buffer, pH 7.4, containing 5.6 mM glucose, 1.3 mM EDTA, 10 μM amino-oxyacetic acid (to prevent GABA breakdown), 2 mM β-alanine (to inhibit glia uptake of GABA) and 0.1 μM ^14C-GABA (150 mCi/mmole, New England Nuclear, Boston, Mass.). In the presence of 1 mM diaminobutyric acid (DABA), a potent inhibitor of ^14C-GABA uptake into GABA neurons, the ^14C-uptake was reduced to 10%. Control values in the presence of DABA were subtracted from experimental values.
# H^3-dopamine (^3H-DA) and ^14C-GABA uptake were measured in sister cultures of mesencephalic cells which had been grown with various concentrations of GDNF for 15 and 16 days, respectively. As described above, GDNF enhanced the ^3H-DA uptake capacity of mesencephalic dopamine neurons ˜150% over control without GDNF (FIG. 21A). […] This is also illustrated by the increase in the ^3H-DA/^14C-GABA uptake ratio calculated (FIG. 21C).
# [2] = system: dopaminergic neurons in rat embryo (E16) mesencephalic cell cultures; assay: Bioassay for dopaminergic neurotrophic activity: 3H-dopamine uptake in dissociated mesencephalic cell cultures; type: cell-based; settings: for FOLD (specific activity relative to B49 conditioned medium): purification fold over CM
# Description: The dopaminergic activity of the GDNF is used to facilitate the purification process. […] Briefly, cultures of dissociated mesencephalic cells are prepared, either in serum rich or serum free environments. Samples to be tested for dopaminergic activity are desalted and serially added to the cell cultures and the dishes are incubated for 6 days at 37° C. in a humidified atmosphere containing 6.5% CO2. The cultures, in the presence of the testing material, are then incubated at 37° C. with tritiated dopamine (^3H-DA). The dopamine uptake is halted, the cells washed, and the dopamine uptake analyzed by scintillation counting of retained tritium in the cultures.
# Culture conditions: Dissociated mesencephalic cell cultures were prepared as previously described (Friedman and Mytilineou 1987 Neurosci. Lett. 79:65-72), with minor modifications. Briefly, rostral mesencephalic tegmentum from brains of Sprague-Dawley rat embryos, at the 16th day of gestation, were dissected under the microscope in sterile conditions, collected in Ca^2+- and Mg^2+-free Dulbecco's phosphate buffered saline (Gibco, Gaithersburg, Md.) and dissociated mechanically by mild trituration. The cells were plated in 100 μl per well onto 16-mm diameter tissue culture wells (Falcon, Lincoln Park, N.J., 24-well plate) containing 400 μl medium to give a density of 2.5-3.5×10^5 cells per well. The culture wells had been previously exposed to 0.1 mg/ml solution of poly L-ornithine in 10 mM sodium borate, pH 8.4, for 3 hours at 37° C., washed 3 times in milli-Q H2O and once in Earle's balanced salt solution (Gibco). The feeding medium (10/10) consisted of minimal essential medium (MEM, Gibco) supplemented with glucose (33 mM), sodium bicarbonate (24.5 mM), glutamine (2 mM), HEPES (15 mM), penicillin G (5 U/ml), streptomycin (5 μg/ml), 10% heat-inactivated fetal calf serum (Gibco) and 10% heat inactivated horse serum (Gibco). The cultures were kept at 37° C. in a water-saturated atmosphere containing 6.5% CO2. After 3 hours, when most of the cells had adhered to the bottom of the well, the medium was replaced with 500 μl of fresh medium. At this time, a serial dilution of the sample to be assayed for GDNF activity was added to each well in duplicate and the plates were incubated in the 37° C. incubator. After a week, the cultures were treated for 24 hours with fluorodeoxyuridine (13 μg/ml) and uridine (33 μg/ml) to prevent excessive glial proliferation and subsequently fed with the above medium without fetal calf serum. The feeding medium was changed weekly.
# Alternatively, chemically defined serum-free medium was used in which serum was replaced by a mixture of proteins; hormones and salts. The defined medium (DM) consisted of a mixture of MEM and F12 nutrient mixture (both Gibco, 1:1; vol/vol) with glucose (33 mM), glutamine (2 mM) NaHCO3 (24.5 mM), HEPES (15 mM), supplemented with transferrin (100 μg/ml), insulin (25 μg/ml), putrescine (60 μM), progesterone (20 nM), sodium selenite (30 nM), penicillin G (5 U/ml) and streptomycin (5 μg/ml). The osmolarity of the DM was adjusted to 325 by the addition of milli-Q H2O. (110-125 ml H2O/l). […] All assays reached in the following examples were done in serum-containing medium.
# The functional status of the dopaminergic neurons may be assayed in these cultures by measuring dopamine uptake through specific “scavenger” transporters in the dopaminergic neurons and by counting the number of neurons positive for the dopamine synthetic enzyme tyrosine hydroxylase using immunohistochemistry.
# [3] = system: dopaminergic neurons in rat embryo (E16) mesencephalic cell cultures; assay: as above; type: cell-based; settings: cultures grown with GDNF for 15 days
molecule,measurement,setting,value
B1,14C-GABA uptake higher than control,[1],~20%
same,bioactivity in dopamine uptake assay,[2],active in stimulating dopamine uptake in both serum-containing and defined media
same,"SP. ACT (specific activity, dopamine uptake trophic units per protein)",[2]; TU = reciprocal of dilution giving 50% of maximal stimulation of 3H-DA uptake,"at least 12,000 TU/μg"
same,concentration for half-maximal stimulation of dopamine uptake,[2]; indicated by the specific activity,approximately 60 pg/ml
same,FOLD (specific activity relative to B49 conditioned medium),[2],"about 24,000"
same,FOLD (specific activity relative to B49 conditioned medium),[2]; listed as substantially purified GDNF,"at least 24,000"
same,estimated specific activity,[2]; purified GDNF after final RP-HPLC,about 17 trophic units/ng
same,ED50 for increasing dopamine uptake,[2]; rat embryo (E16) mesencephalic culture,about 50 pg/ml
same,3H-DA uptake capacity over control without GDNF,[3],~150%
